Protein stability index data for 94 variants are collected here from the supplement of paper PMC10567573.

First the molecules themselves.
B1: IQUB (parent)
chain: KIREKEEWIKLDYHRRHNPKTNED
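Further: lentivirally expressed fusions sorted by FACS into six bins by GFP to DsRed ratio, PSI derived from sequencing read proportions per bin multiplied by bin number.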

Variants of B1 are the subject of this series. Nature of the series: protein stability index of a GFP-peptide fusion (GPS, HEK-293T) (PSI 1-6); higher = more stable. The following applies: c terminus: a fixed tail appended.
Take KIREKEEPIKLDYHRRHNPKTNED: the protein stability index was determined as 5.25.

With KIREKEEYIKLDYHRRHNPKTNED, the protein stability index worked out at 5.13.

KIREKEEFIKLDYHRRHNPKTNED: the protein stability index was found to be 4.24.

As for KIREKEEHIKLDYHRRHNPKTNED, the protein stability index turned out to be 4.99.

For the variant KIREKEEDIKLDYHRRHNPKTNED, the protein stability index stood at 5.13.

Take KIREKEEAIKLDYHRRHNPKTNED: the protein stability index was 5.18.

For the variant KIREKEEEIKLDYHRRHNPKTNED, the protein stability index came out at 4.69.

Regarding KIREKEEVIKLDYHRRHNPKTNED, the protein stability index is 5.07.

With KIREKEEKIKLDYHRRHNPKTNED, the protein stability index was determined as 5.19.

Consider KIREKEEMIKLDYHRRHNPKTNED, for which the protein stability index was found to be 5.1.

Consider KIREKEETIKLDYHRRHNPKTNED, for which the protein stability index was found to be 5.19.

Turning to KIREKEERIKLDYHRRHNPKTNED, the protein stability index was 4.91.

For the variant KIREKEEGIKLDYHRRHNPKTNED, the protein stability index turned out to be 5.54.

Regarding KIREKEESIKLDYHRRHNPKTNED, the protein stability index was 5.41.

Take KIREKEEQIKLDYHRRHNPKTNED: the protein stability index was found to be 5.58.

As for KIREKEELIKLDYHRRHNPKTNED, the protein stability index worked out at 4.94.

In the case of KIREKEEIIKLDYHRRHNPKTNED, the protein stability index was 4.24.

Regarding KIREKEENIKLDYHRRHNPKTNED, the protein stability index was determined as 5.03.

Consider KIREKEECIKLDYHRRHNPKTNED, for which the protein stability index came out at 4.93.

Take KIREKDEWIKLDYHRRHNPKTNED: the protein stability index stood at 4.31.

Regarding KIREKNEWIKLDYHRRHNPKTNED, the protein stability index came out at 4.52.

KIREKMEWIKLDYHRRHNPKTNED: the protein stability index is 3.69.

For the variant KIREKREWIKLDYHRRHNPKTNED, the protein stability index came out at 4.66.

For the variant KIREKKEWIKLDYHRRHNPKTNED, the protein stability index amounted to 3.98.

In the case of KIREKFEWIKLDYHRRHNPKTNED, the protein stability index turned out to be 3.56.

As for KIREKLEWIKLDYHRRHNPKTNED, the protein stability index amounted to 2.7.

With KIREKTEWIKLDYHRRHNPKTNED, the protein stability index worked out at 4.41.

On to KIREKWEWIKLDYHRRHNPKTNED, for which the protein stability index stood at 2.61.

For the variant KIREKVEWIKLDYHRRHNPKTNED, the protein stability index was 3.63.

Consider KIREKAEWIKLDYHRRHNPKTNED, for which the protein stability index stood at 3.32.

For KIREKPEWIKLDYHRRHNPKTNED, the protein stability index is 3.58.

Regarding KIREKGEWIKLDYHRRHNPKTNED, the protein stability index is 3.96.

In the case of KIREKQEWIKLDYHRRHNPKTNED, the protein stability index was found to be 4.47.

With KIREKCEWIKLDYHRRHNPKTNED, the protein stability index is 4.35.

As to KIREKYEWIKLDYHRRHNPKTNED, the protein stability index came out at 2.88.

On to KIREKHEWIKLDYHRRHNPKTNED, for which the protein stability index came out at 3.98.

For KIREKSEWIKLDYHRRHNPKTNED, the protein stability index turned out to be 4.03.

For the variant KIREKERWIKLDYHRRHNPKTNED, the protein stability index was determined as 3.51.

For KIREKETWIKLDYHRRHNPKTNED, the protein stability index stood at 4.37.

KIREKEPWIKLDYHRRHNPKTNED: the protein stability index stood at 3.6.

On to KIREKEYWIKLDYHRRHNPKTNED, for which the protein stability index was 3.31.

As to KIREKEMWIKLDYHRRHNPKTNED, the protein stability index was found to be 3.27.

For the variant KIREKENWIKLDYHRRHNPKTNED, the protein stability index came out at 4.45.

Regarding KIREKEGWIKLDYHRRHNPKTNED, the protein stability index stood at 3.8.

Take KIREKEIWIKLDYHRRHNPKTNED: the protein stability index turned out to be 3.36.

Regarding KIREKESWIKLDYHRRHNPKTNED, the protein stability index was determined as 4.46.

Regarding KIREKEFWIKLDYHRRHNPKTNED, the protein stability index worked out at 3.34.

In the case of KIREKEQWIKLDYHRRHNPKTNED, the protein stability index amounted to 4.19.

Turning to KIREKECWIKLDYHRRHNPKTNED, the protein stability index was determined as 4.61.

Regarding KIREKEVWIKLDYHRRHNPKTNED, the protein stability index came to 3.99.

On to KIREKEDWIKLDYHRRHNPKTNED, for which the protein stability index came to 4.48.

On to KIREKEAWIKLDYHRRHNPKTNED, for which the protein stability index was 4.74.

Regarding KIREKELWIKLDYHRRHNPKTNED, the protein stability index came out at 2.68.

As to KIREKEHWIKLDYHRRHNPKTNED, the protein stability index came to 4.34.

In the case of KIREKEWWIKLDYHRRHNPKTNED, the protein stability index was 3.46.

KIREKEKWIKLDYHRRHNPKTNED: the protein stability index was 4.03.

For KIREKEEWIKADYHRRHNPKTNED, the protein stability index was 4.77.

As to KNREKEEWIKLDYHRRHNPKTNED, the protein stability index came out at 5.

Consider KDREKEEWIKLDYHRRHNPKTNED, for which the protein stability index is 5.17.

KFREKEEWIKLDYHRRHNPKTNED: the protein stability index is 4.19.

In the case of KCREKEEWIKLDYHRRHNPKTNED, the protein stability index came out at 4.62.

As for KMREKEEWIKLDYHRRHNPKTNED, the protein stability index turned out to be 4.72.

In the case of KPREKEEWIKLDYHRRHNPKTNED, the protein stability index amounted to 3.84.

Take KVREKEEWIKLDYHRRHNPKTNED: the protein stability index is 4.67.

Consider KHREKEEWIKLDYHRRHNPKTNED, for which the protein stability index came out at 4.91.

In the case of KAREKEEWIKLDYHRRHNPKTNED, the protein stability index turned out to be 4.88.

Take KRREKEEWIKLDYHRRHNPKTNED: the protein stability index was determined as 4.58.

As for KKREKEEWIKLDYHRRHNPKTNED, the protein stability index is 4.8.

Regarding KSREKEEWIKLDYHRRHNPKTNED, the protein stability index is 5.09.

Regarding KEREKEEWIKLDYHRRHNPKTNED, the protein stability index amounted to 5.32.

KGREKEEWIKLDYHRRHNPKTNED: the protein stability index amounted to 5.25.

With KYREKEEWIKLDYHRRHNPKTNED, the protein stability index was 4.2.

As to KWREKEEWIKLDYHRRHNPKTNED, the protein stability index is 4.26.

Take KQREKEEWIKLDYHRRHNPKTNED: the protein stability index came to 4.14.

Take KTREKEEWIKLDYHRRHNPKTNED: the protein stability index turned out to be 4.69.

Turning to KLREKEEWIKLDYHRRHNPKTNED, the protein stability index was 4.74.

Take KIREKEEWIGLDYHRRHNPKTNED: the protein stability index is 4.9.

As to KIREKEEWIWLDYHRRHNPKTNED, the protein stability index stood at 3.17.

Regarding KIREKEEWIPLDYHRRHNPKTNED, the protein stability index worked out at 5.26.

As for KIREKEEWIFLDYHRRHNPKTNED, the protein stability index worked out at 4.68.

Turning to KIREKEEWIQLDYHRRHNPKTNED, the protein stability index was 4.74.

In the case of KIREKEEWIILDYHRRHNPKTNED, the protein stability index stood at 4.16.

In the case of KIREKEEWIALDYHRRHNPKTNED, the protein stability index amounted to 4.65.

Regarding KIREKEEWIELDYHRRHNPKTNED, the protein stability index was found to be 5.3.

Take KIREKEEWICLDYHRRHNPKTNED: the protein stability index came out at 4.15.

Turning to KIREKEEWINLDYHRRHNPKTNED, the protein stability index came out at 4.48.

With KIREKEEWIDLDYHRRHNPKTNED, the protein stability index was 4.99.

Take KIREKEEWIVLDYHRRHNPKTNED: the protein stability index turned out to be 4.2.

Turning to KIREKEEWIHLDYHRRHNPKTNED, the protein stability index was found to be 4.56.

Take KIREKEEWITLDYHRRHNPKTNED: the protein stability index stood at 4.97.

As to KIREKEEWIYLDYHRRHNPKTNED, the protein stability index turned out to be 4.31.

Consider KIREKEEWISLDYHRRHNPKTNED, for which the protein stability index worked out at 4.68.

In the case of KIREKEEWIRLDYHRRHNPKTNED, the protein stability index is 4.92.

As to KIREKEEWILLDYHRRHNPKTNED, the protein stability index amounted to 4.04.
